Reference: the supplement of paper PMC11502859

Test system: HEK293T
Assay: median enrichment of reporter reads in eGFP-reduced (low/intermediate) vs eGFP-high sorted cells (eGFP-extension fusion abundance) (ratio); higher = stronger loss of eGFP-fusion protein abundance (more destabilising extension)
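Note: lentiviral eGFP-IRES-mCherry reporter pool sorted by FACS 96 h post-transduction, gated on mCherry-high cells, Illumina read counts normalized per million, median across four biological replicates.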

Row | Substance | median enrichment
1 | LGTQASPSLTAEVRNKRWFRVPA [PSMC3] | 8.36
2 | LGYRFWKHLSLGPKEVLLPFWASITQVVPVLTAEETSLPLFVLSPSFFNSV [MS4A8] | 15.7
3 | LHGFQASGSLTISLLRVSPGNCLTKSQAQGLLSIYLISERLF [LIMCH1] | 33.9
4 | LHGPCMLINASSEM [TMEM205] | 5.79
5 | LHSCTPISRAASLPSRGLQQCAWLAAAPPRAPWPRRCQPT [THSD4] | 7.14
6 | LHSL [ZNF443] | 0.555
7 | LHTELFIDTPHDCISRTHLLIILDPRETITSPSRQWRQIKISAEKEGHVEPQKHFYSG [SNTG1] | 9
8 | LHTQSPGVGHTAVISQS [ALLC] | 0.756
9 | LHVKTFILVSTVFQ [SCGB1D2] | 6.88
10 | LIA [ACAT2] | 1.03
11 | LIFFYQEG [PTEN] | 5.69
12 | LIFLI [MAP2] | 6.91
13 | LIGCMEK [BTN3A1] | 11.1
14 | LIHGAEG [SLC16A1] | 1.29
15 | LIHSQGKLGNSEEKSLPSFWMNCMSSGLSTTM [RNF32] | 10
16 | LIIMLKSALTFLR [MCF2L2] | 15.2
17 | LILKLHPQ [BZW1] | 4.65
18 | LILYPSAMATRRTNNCPPLEVRLIEALDPNKIRIRICNGPGAVPHACHPSTLGG [RBPMS] | 3.14
19 | LINARSHPMIILNYSHYF [LRRIQ3] | 6.8
20 | LIPQPGLPVHLLTLLKSSIVVIL [CD46] | 10.7
21 | LIPVDPQGLAKARDTQREMLVIPLENLASNFLYV [KRT38] | 39.9
22 | LIQHREVAACDLTHRFLCFLSHPGNLAFWFLPATLRLSSSAFQ [FHL2] | 7.42

Row | Substance | median enrichment
23 | LISHSYLLKYI [ELAVL4] | 7.49
24 | LISLSKSIKRESSLQK [SYNGR4] | 8.85
25 | LKDRFFKLT [RBBP6] | 3.7
26 | LKEIWEIL [ZNF418] | 16.1
27 | LKELIFNFSLQTGQH [TAF7] | 6.43
28 | LKG [SSBP1] | 0.599
29 | LKH [HOXA2] | 0.608
30 | LKILVLLNYLI [TIPARP] | 10.8
31 | LKINC [FGG] | 0.827
32 | LKKKKG [TNFAIP6] | 3.07
33 | LKKKKKKALAFSCLFC [PCDH17] | 25.4
34 | LKKKKQQVMELHILVTQWTIIGSHWKSGKNPWRLSFSDILPNALLSRIFVSFCLIFWGVFVVVGLFFVFFF [PPP1R12A] | 5.8
35 | LKKNPRKNKS [NME5] | 1.1
36 | LKLQLNRGSRKLLSLRGGV [MIP] | 14.1
37 | LKNCLEELY [EBF1] | 2.5
38 | LKNKSPLQNTPPSHSAPQLPTTARLSSFASVASPALHALAGTVAAAFSCSVMPSSCLKQKKIMHCVF [STXBP1] | 6.42
39 | LKPERIVK [OR2A25] | 0.737
40 | LKPGC [KRTAP1-4] | 0.613
41 | LKPPSAGDPDKMAP [KRTAP1-1] | 0.285
42 | LKQPV [RIC3] | 1.01
43 | LKSKLVVLQLCVTFSPSAVSVQHLFHKCFVFSNTVFTTLLACICMFYTKAYTVLCEAIRSRKGIVNNIKHFYTKIICFVIRF [SLC44A5] | 2.32
44 | LKSP [SPATA5L1] | 0.47

Row | Substance | median enrichment
45 | LKTPHPSLLECVWPFSSFSWQHQLGCFLCVWPQVSK [DUSP6] | 6.83
46 | LKVLAGFT [DACH2] | 4.2
47 | LKVSVNLQC [ZFR] | 6.3
48 | LKWAEPKFGVLHRAPFLHPWGGAQLGATLTMPRPHPVQHSQSSHLHPRTVGAGRHFPLEHVLRSITLGPTARLSLPPGSCMRS [SCARA5] | 5.99
49 | LLAG [QKI] | 4.55
50 | LLAL [MS4A5] | 7.23
51 | LLASIS [TENT2] | 5.22
52 | LLC [OR10A3] | 3.73
53 | LLCKEYGIAKISLVANISGKVHIFILNSHSFEL [MYNN] | 4.26
54 | LLECEISVGQTTRVCVCVLMESSLVVSSSFFLVTVLLNLIK [PET117] | 9.64
55 | LLEWIYDVPLRRSISATILI [HMGCLL1] | 20.6
56 | LLGGPGRRVPPSPCQGPGDPLPGCLRLLLRRGNAKKEKEKPRARPLPPAVHCAASSVPGLTVPLSSAPARQGTCSQPWVDLFF [NRXN2] | 6.99
57 | LLHERMQRMQFPGCAVDFFQQV [CEP112] | 20.7
58 | LLHMQKDSAIYLKID [APBB2] | 11.6
59 | LLK [HGF] | 1.66
60 | LLKTCSTTVLDTH [ATF2] | 8.11
61 | LLL [Leu03] | 4.12
62 | LLLEIRLLQLDV [CDC27] | 10.6
63 | LLLL [Leu04] | 9.42
64 | LLLLL [Leu05] | 4.74
65 | LLLLLL [Leu06] | 6.86
66 | LLLLLLL [Leu07] | 12.7

Row | Substance | median enrichment
67 | LLLLLLLL [Leu08] | 6.62
68 | LLLLLLLLL [Leu09] | 11.2
69 | LLLLLLLLLL [Leu10] | 14.7
70 | LLLPADLWIRSLLTGCVTLGPELPLSGPQRPYEGPLLQEHPHDIAFGGAPVACRIACGLCNLLRFKTDGHMCQWGSLSPGPKK [JAK3] | 5.04
71 | LLLPGGEQPTRCRFALRGASYIGTLLSLQNDDTNANDQM [TFB1M] | 5.57
72 | LLLPLGFTSQTQPLEQPDPAE [CHAT] | 6.49
73 | LLLPRSWATP [CEP72] | 4.2
74 | LLMMFQKPK [TGIF2LX] | 8.04
75 | LLQGSKLQR [OR7A5] | 10.4
76 | LLRDPAPPL [AHSP] | 4.96
77 | LLRG [ARPP19] | 4.64
78 | LLRPGALGARP [APOBR] | 9.86
79 | LLRPHVKPPCPSTLPIALQRSSSWMTQI [RESP18] | 7.12
80 | LLSITKVYSKIIF [HNMT] | 7.95
81 | LLTLS [BBS5] | 10.2
82 | LLTVFHKEDV [ATP2A2] | 10.9
83 | LLYSILWSSSSVARPLILSFAHVHPN [KCNK17] | 25.2
84 | LMDHG [GLUD2] | 1.6
85 | LMGCSLLLSFLGLLCFAVLENHKERNSYGEVRKTEKDSCVKLFFACKLLHFKRPPLFLQRTFFAQLWTLSMVP [DLX5] | 11.5
86 | LMLPGIK [CDV3] | 4.97
87 | LMPSTAADLWLDLGKGSIVLGKSTRSCKLGIHS [AGBL4] | 8.11
88 | LMSMSEGKENFGHQNPAPSELKELIYFMKLILLCVCSWC [GALNT15] | 12.1

Row | Substance | median enrichment
89 | LNAFLASSAGGLSLGRGDSTHHWNFADRKRFLFSVL [KMT2C] | 16.9
90 | LNCSQLEML [DNAJC24] | 0.695
91 | LNE [ZCCHC2] | 0.346
92 | LNFHTEF [TP53BP2] | 0.758
93 | LNFNKTFKITEIFKI [LIAS] | 9.41
94 | LNFQQRPSKDILQDSVIVNIWKVLEIFIVCKYCKCIGIKLSPPLLYETAHWSL [PTHLH] | 0.919
95 | LNGSHSVTQAGVKWPNHSSLQPQPGRFR [COX17] | 8.21
96 | LNGSI [PHF20L1] | 0.416
97 | LNGVQAQRPLGVMTKCSCTTVLKELRLLPFF [DYTN] | 8.97
98 | LNI [WDR78] | 0.527
99 | LNILKCKASTV [TRAPPC6B] | 1.63
100 | LNKLKMDLFFFNGNRTLCQITSYRNNSLFLTNLVLPYTSTGF [PTEN] | 9.05
101 | LNLKKSFQ [CCDC160] | 1.05
102 | LNLNGHYKLSNST [ARMC4] | 1.8
103 | LNQFLGLTAM [BTN2A1] | 12.4
104 | LNQS [CFH] | 0.385
105 | LNQSVFPACAELLI [ZP4] | 3.4
106 | LNREKKLQVVLKEMQLFKSLCIVLILFTMCNHLENGYFYNLNNKQVLS [C8orf34] | 2.33
107 | LNRKKSPK [MDN1] | 0.34
108 | LNRQDRLWERGSFHKRKMVGLFPE [C10orf53] | 7.23
109 | LNWD [PIK3C3] | 0.342
110 | LPAAPGTRGYTPVSLRE [KRTAP12-3] | 0.986

Row | Substance | median enrichment
111 | LPAASLHAPRSSLHGSPGRWQTMLRLHQGHRGAEGPMGEERRALLGKVGFLDPRDKLFRCHNVEESTWGTTVLVQVGLGKCTS [IGHMBP2] | 3.92
112 | LPAIDNVAGTSASPLQPSNFPGTLLSAPEEGAVVSCCLWAPASSAVLGSVLLASVNNKATVCSGICGFVHSVTCHLHRALMAG [MCM5] | 5.35
113 | LPARPHGQPVASCRPHSPGTVSCLCVRPPLPCLLRHPPPHIHTQRFDKLLVFNE [SMTN] | 7.46
114 | LPCSSTVTTRQALLSAEGVIPGPPVCVIVTMPCRDILEATHGWRNPEPPPQPTWLFVDSRRQGCAWLLTCC [PFKFB4] | 11.1
115 | LPDFGAAEAT [ELP6] | 0.429
116 | LPEKLCQLQGGSDFRKVV [HERPUD2] | 0.919
117 | LPF [SDHD] | 0.443
118 | LPFSGLQPPPGWKPWGPSGLGGAASRERAPFSGLPPQHAAS [CDR2L] | 5.38
119 | LPGAGGWTC [PTH1R] | 1.02
120 | LPGLRRTLWTECLRTSYSLMLNPFHFLSFHSWVDSDHKDSWGFPGRTLHLMEHLNCRFCFPPLPHVIIKL [LCE2B] | 6.36
121 | LPGPGFAPAPASGPPGSRCGGCGPRAGARRRRRRREGARPAGRNRSDSRQEPGTEPGTEQQVRPGPPRLGADSDALGGSRKGG [NKX6-2] | 6.82
122 | LPHHTPDHQESQGCCFATHQHRFAQKLCPRLGRSYFKKTWFSWSRWLTPVIPALWEAKPDGS [COG7] | 8.59
123 | LPLARSLPSVHRSQFHRWRRCLR [PIPOX] | 10.5
124 | LPLKTVPLRDPKTLGIDTWASGRAQPWAGGLLRTQRCAWNHS [SLC4A3] | 31
125 | LPLPFTLT [ATF6B] | 3.98
126 | LPLVLYSNLFGNDSSTHRTACVRAHTHTHTHTHTHH [GNAO1] | 3.16
127 | LPMTLSWGPPARPGTFLPNPQTHDSLPHRLPQRPPTHFILSGHPSDLDPPVRAFKAPNSGTRSAPLPRPRAGNFSLPDPALLF [SCRT2] | 6.07
128 | LPNFTSSGESLTLNQRPSTALAPQTSP [ABCB5] | 0.355
129 | LPPLSPECNKHQIPCVK [POLR2I] | 2.23
130 | LPR [ATXN2L] | 0.876
131 | LPRPQPGPRTSGHRWHQPLLQDHQSGAPRTLACVP [GSG1L] | 17.3
132 | LPRWFQPRHTLVPT [DNAAF5] | 4.04
